Results on 33 sequences are retold here after the supplement of paper PMC9170038.

This series deals with MS2 coat protein. Put plainly: apparent KD of MS2 coat protein; designed switch direction (-1 OFF switch, 1 ON switch): -1; higher = weaker reporter binding. A digest of the protocol: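 Designed RNA switches were transcribed on Illumina chips by stalled E. coli RNA polymerase and titrated with SNAP-549-labelled MS2 coat protein from 0.7 or 1.5 nM, doubling to 3 µM. Step length ran from 0.8–1.5 h at the lowest concentration to 10–20 min at the highest. The apparent KD is the median over clusters for each design, from curve-fitted normalised cluster fluorescence.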

Setting [1] is: Eterna round: R95, input ligand: FMN 200 uM.
Where [2] appears, read: Eterna round: R95, input ligand: microRNA oligo, concentration not stated.
The mark [3] stands for this setting: Eterna round: R95, input ligand: none.
Setting [4] is: input ligand: microRNA oligo, concentration not stated.

“AUGAGCAGACGGAGAUCCAACAUGAGGAUCACCCAUGUCUCAAAAGCUUUUUGCUCAUCUUAUUGUACCUUGGUGCU [Mat - Sensor v3 - turn-off var 1 - JL Mod - D16] (puzzle: Sensor v3, turn-off variant 1)”: the “apparent KD of MS2 coat protein” value came out at 167 nM under setting [1], 13.2 nM under setting [2] and 194 nM under setting [3].

Consider “GCUAGAGCAGGAUAUCUAGAUCCACACAUGAGGAUCACCCAUGUACGGUCGAAAGACCGAAGAGAAGGGCUCUAGC [Omei Ex5 E12] (Eterna round: R97, puzzle: Exclusion 5)”, for which the “apparent KD of MS2 coat protein” value turned out to be 98.5 nM (input ligand: FMN 200 uM) and 67 nM (input ligand: none). As for “GGUCGGCGAGGAUAUACAUGAGGAUCACCCAUGUGAUUUAGUGCACGCGUACGUGUACGUAGAAGGCGCUGACG [JL-ex3-3.27 salish99 mod] (puzzle: Exclusion 3)”, the “apparent KD of MS2 coat protein” value under setting [1] came out at 127 nM, the “apparent KD of MS2 coat protein” value under setting [2] is 14 nM and the “apparent KD of MS2 coat protein” value under setting [3] was determined as 11.3 nM. As for “AUUAAAACAUAGGAUAUCGAAUUUAUUAUUUAACGAGAAGGAUGAACAUGAGGAUCACCCAUGUGGUAUCAUGG [Mat - Exclusion 6 - JL Mod - D26] (puzzle: Exclusion 6)”, the “apparent KD of MS2 coat protein” value under setting [2] was found to be 202 nM. “CUUGUGUGAGGAUAUCAGUAGUAGUACGAUAGUAUUACUGCUGAGAAGGCACAUGAGGAUCACCCAUGUUCUUC [Exclusion 4 - Mod Omei Ex4 344 mod v.4] (puzzle: Exclusion 4)”: under setting [2], the “apparent KD of MS2 coat protein” value is 23.6 nM. With “UAUUCGCAAGUGAGAUCCCACAUGAGGAUCACCCAUGUGCUCGUCUUAUAAGGUACUGUGACGAUAGUCACGGUACC [Mat - Sensor, turn-off var - Eli Mod - D80] (Eterna round: R97, puzzle: Sensor, turn-off variant 1)”, the “apparent KD of MS2 coat protein” value by setting is: (input ligand: FMN 200 uM) 30.9 nM; (input ligand: none) 32.5 nM.

Consider “GUGUAACUACACGGGCUCAACAUGAGGAUCACCCAUGUCAUACACGCAAGCUUUUCGCUUGUCUUAUCUGUCCGUGA [Mainesleed] (puzzle: Sensor v3, turn-off variant 1)”, for which the “apparent KD of MS2 coat protein” value reads like this: under setting [1], 12.5 nM; under setting [2], 14.2 nM; under setting [3], 11.3 nM.

Regarding “CUUUUGUGAGGAUAUCAGUAGUAAAUAAAUAAAAUUAAUACUGAGAAGGCACAUGAGGAUCACCCAUGUUCCUC [Mat - Exclusion 4 - Mod of Salish - D63] (puzzle: Exclusion 4)”, the “apparent KD of MS2 coat protein” value under setting [2] was found to be 33 nM.

For the sequence “GCAGCAACUCUAAUCAAUCAAACAUGAGGAUCACCCAUGUCUCAGGAUAUGGUCUGGAUUACAGGCCAGAAGGGAGAAAGCUGC [Eli exng3 - 045] (Eterna round: R96, puzzle: Exclusion NG 3)”, the “apparent KD of MS2 coat protein” value was 14.3 nM (input ligand: FMN 200 uM), 11.1 nM under setting [4] and 16.1 nM (input ligand: none). As to “ACAUGAGGAUCACCCAUGUUUUUUGGGUACUUUUGUUUCUGCAAGGAUAUGCAUUAUUUAUAUACGCAGAAGGUGCAUUACUUC [JR_ExcNG3_Sub061] (Eterna round: R96, puzzle: Exclusion NG 3)”, under setting [4], the “apparent KD of MS2 coat protein” value was found to be 501 nM.

For the sequence “UUUAAUUUUUUUUUUUUACAAGCUUUUUGCUCGUCUUAUACAUGAGGAUCACCCAUGUGGGUAGAGGAUAAAUUAUC [JMF 28] (puzzle: Sensor v3, turn-off variant 2)”, the “apparent KD of MS2 coat protein” value was found to be 38.7 nM under setting [1], 61.1 nM under setting [2] and 36.2 nM under setting [3].

With “UAGUGCUGAGGAUAUACAUGAGGAUCACCCAUGUGCCUUUAACUUAAAGUGUGCACAAGUAGAAGGCGGUGCAA [Eternabot (L1) Solution 93] (Eterna round: R97, puzzle: Exclusion 3)”, the “apparent KD of MS2 coat protein” value (input ligand: FMN 200 uM) was 20 nM and the “apparent KD of MS2 coat protein” value (input ligand: none) came to 19.5 nM. “GAUUAACAUGAGGAUCACCCAUGUGAGGAUAUGAACUUGCCCACUUACCAGAUAAAGUUUAGAAGGCGCAUUCU [1986#35] (Eterna round: R97, puzzle: Exclusion 1)”: the “apparent KD of MS2 coat protein” value reads like this: (input ligand: FMN 200 uM) 47.3 nM; (input ligand: none) 30.4 nM.

Consider “AGUUGGCGAGGAUAUACAUGAGGAUCACCCAUGUGAAAUAGAAUAGUGAGGAAGAAAAGUAGAAGGCGCUGACA [Mat - Exclusion 3 - Mod of Salish D41] (puzzle: Exclusion 3)”, for which the “apparent KD of MS2 coat protein” value under setting [2] came out at 49.7 nM. Regarding “CAAGUCCUUUACUACAAGCACAUGAGGAUCACCCAUGUCAAAUUUGUGCCUCGGUACGGAAGCUCGUCUUUUCGUAG [Eternabot (L2) Solution 1] (Eterna round: R97, puzzle: Sensor, turn-off variant 1)”, the “apparent KD of MS2 coat protein” value is, setting by setting: (input ligand: FMN 200 uM) 30 nM; (input ligand: none) 35.6 nM. Taken in the same sequence, the figures for “UUUAAGUCAGGAUAUACAUGAGGAUCACCCAUGUAAAAUUUUAAUUUAAUUUUAAGGUGUAGAAGGGACAAUUU [Ex3 #3] (Eterna round: R97, puzzle: Exclusion 3)” were 29.5 nM and 34.9 nM. With “UUAUCAUGCUUUAGAUCCUACAUGAGGAUCACCCAUGUGCUCGUCUUGUAUCGUUCUGUGUCGUAAGUCUCUGUUCG [mod Jandersonlee designer] (Eterna round: R97, puzzle: Sensor, turn-off variant 1)”, the “apparent KD of MS2 coat protein” value runs as follows: (input ligand: FMN 200 uM) 924 nM; (input ligand: none) 1390 nM. On to “ACCUUACAUGAGGAUCACCCAUGUCAGGAUAUCUCGGACGGCUGAAAACCAACCGUCCAGAGAAGGGACGAGGA [Solamaso] (puzzle: Exclusion 1)”, for which the “apparent KD of MS2 coat protein” value under setting [2] was 12.5 nM. As to “AAAGAACAUGAGGAUCACCCAUGUUAGGAUAUAGUAGCAGUGUAUCUAAAGACAGCAGCUAGAAGGAGCAUGAG [Eternabot (Original) Solution 46] (Eterna round: R97, puzzle: Exclusion 1)”, the “apparent KD of MS2 coat protein” value runs as follows: (input ligand: FMN 200 uM) 77.4 nM; (input ligand: none) 74.3 nM.

“AACGAAGCAGGAUAUACAUGAGGAUCACCCAUGUGCUUGCAUGGCGUGGGAAGUCAUAGUAGAAGGGCUACGCC [EX3 #62] (Eterna round: R97, puzzle: Exclusion 3)”: the “apparent KD of MS2 coat protein” value is, setting by setting: (input ligand: FMN 200 uM) 53.6 nM; (input ligand: none) 22.1 nM. Take “CUUUUGUGAGGAUAUCAGGUGUGCUAGCGUACUGGUACAUCUGAGAAGGCACAUGAGGAUCACCCAUGUUCCUC [JL-ex4-3.17 Brourd mod] (puzzle: Exclusion 4)”: under setting [2], the “apparent KD of MS2 coat protein” value was determined as 39.1 nM. For “AGCUGUGGCCGAGGAUAUCAAGAACCAUGGAAAACCAUGGAACCUUGACAUGAGGAUCACCCAUGUGAGAAGGCGGUCUCAGCA [Eli eng2 - 026] (Eterna round: R96, puzzle: Exclusion NG 2)”, under setting [4], the “apparent KD of MS2 coat protein” value stood at 11.1 nM.

As to “GGAAAGUGAGGAUAUGGUAAUUUAAUUAUUAAUUAAUUAAUCCAGAAGGCACAUGAGGAUCACCCAUGUAAAGG [Mat - Exclusion 4 - D92] (puzzle: Exclusion 4)”, under setting [2], the “apparent KD of MS2 coat protein” value worked out at 30.7 nM. For the sequence “CUGUACUGAGGAUAUACAUGAGGAUCACCCAUGUGUUCCAGCUAGGAAACUAGCAAAUGUAGAAGGCAGUACAG [Mat - Exclusion 3 - Eli Mod - D50] (Eterna round: R97, puzzle: Exclusion 3)”, the “apparent KD of MS2 coat protein” value by setting is: (input ligand: FMN 200 uM) 307 nM; (input ligand: none) 342 nM. Take “UUUUUGUAUGAAGGAUAUACUUAACAUGAGGAUCACCCAUGUGGUGUUGUGAGUGAGUGAGUUUAGUAGAAGGUCAAGUAUUUU [JMF's solution 46] (Eterna round: R96, puzzle: Exclusion NG 2)”: the “apparent KD of MS2 coat protein” value (input ligand: FMN 200 uM) came out at 580 nM, the “apparent KD of MS2 coat protein” value under setting [4] amounted to 606 nM and the “apparent KD of MS2 coat protein” value (input ligand: none) stood at 390 nM. For “GAGAACUGAGGAUAUACAUGAGGAUCACCCAUGUUAAGAAGAAAGUAUAAAAGAUUAUGUAGAAGGCAGAGAGA [JR_Ex3_Sub068] (Eterna round: R97, puzzle: Exclusion 3)”, the “apparent KD of MS2 coat protein” value turned out to be 29.8 nM (input ligand: FMN 200 uM) and 33.3 nM (input ligand: none). On to “GCUUGACGAGGAUAUGCAUACACUGGAUACAGUGGAAGGUCACAUGAGGAUCACCCAUGUAGAAGGCGUCGAGC [EX2 #40] (Eterna round: R97, puzzle: Exclusion 2)”, for which the “apparent KD of MS2 coat protein” value runs as follows: (input ligand: FMN 200 uM) 123 nM; (input ligand: none) 35.4 nM. For “CCAGUACGAGGAUAUACAUGAGGAUCACCCAUGUAAAUUGCCACGUCUUGGACGUCAUGUAGAAGGCGUUGGAA [EX3 C.1] (Eterna round: R97, puzzle: Exclusion 3)” the same measures were 15.2 nM and 14.3 nM. Consider “CCAGCGUGUGUGAGGAUAUGCUGGUCCUUGGAUCAGCAGAAGGCACAUGAGGAUCACCCAUGUGAGAGCGUUGG [JL bmx4 3.36] (puzzle: Brourd's mod of Exclusion 4)”, for which the “apparent KD of MS2 coat protein” value under setting [2] came out at 20.7 nM. Turning to “AAAAAACAUGAGGAUCACCCAUGUUAGGAUAUGCUAUGGAAAAUAAAAAAUAAACAUAGCAGAAGGAACAAAAA [Mat - Exclusion 1 - Eli mod - D30] (Eterna round: R96, puzzle: Exclusion 1)”, the “apparent KD of MS2 coat protein” value under setting [4] was 33.2 nM. As for “GUUACACAUGAGGAUCACCCAUGUGAGGAUAUGGAUUCGUUGCAAGUAGGCGAUGGAUCCAGAAGGCGCGUGAG [JR_Ex1_Sub080] (Eterna round: R97, puzzle: Exclusion 1)”, the “apparent KD of MS2 coat protein” value by setting is: (input ligand: FMN 200 uM) 58.7 nM; (input ligand: none) 50.5 nM.

In the case of “AUAUAGUGAGGAUAUACAUGAGGAUCACCCAUGUGGUAGUAGAUACAGUAGAGAUAGAGUAGAAGGCACGAUGA [EX3 #26] (Eterna round: R97, puzzle: Exclusion 3)”, the “apparent KD of MS2 coat protein” value is, setting by setting: (input ligand: FMN 200 uM) 197 nM; (input ligand: none) 68 nM.

Turning to “UUAAAUCAUGUAGGAUAUGCGUGGCGAAGCUAUGCAGAAGGACAUGAGGAUCACCCAUGUUCCUGCGUCCGCGUACGGAUGCAA [JL Eng1 1.21 mod] (Eterna round: R96, puzzle: Exclusion NG 1)”, the “apparent KD of MS2 coat protein” value is, setting by setting: (input ligand: FMN 200 uM) 167 nM; under setting [4], 16.3 nM; (input ligand: none) 18.1 nM.
